Results on one molecule are retold here after publication PMC12540871.

This data set deals with CVB3 3D (Coxsackievirus B3, UniProt P03313 1724-2185). As to the kind of experiment: ITC. (Isothermal titration calorimetry measures the heat released or taken up as one component is titrated into another.)
Sequence of CVB3 3D (P03313 1724-2185): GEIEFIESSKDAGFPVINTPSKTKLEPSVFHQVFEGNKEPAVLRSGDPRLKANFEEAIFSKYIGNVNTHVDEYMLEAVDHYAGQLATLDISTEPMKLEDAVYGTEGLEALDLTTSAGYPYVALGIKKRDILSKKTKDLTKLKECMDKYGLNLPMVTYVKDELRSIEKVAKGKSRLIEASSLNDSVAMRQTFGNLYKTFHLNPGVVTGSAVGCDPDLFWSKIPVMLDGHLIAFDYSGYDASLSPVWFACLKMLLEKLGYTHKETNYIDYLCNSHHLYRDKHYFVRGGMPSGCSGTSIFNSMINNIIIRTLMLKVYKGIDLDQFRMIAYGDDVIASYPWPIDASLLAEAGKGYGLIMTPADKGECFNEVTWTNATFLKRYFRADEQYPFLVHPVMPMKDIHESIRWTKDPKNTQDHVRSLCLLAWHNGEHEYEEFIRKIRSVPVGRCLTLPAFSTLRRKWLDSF

B1: CVB3 CL WT (structured_RNA)
RNA: GGUAAAACAGCCUGUGGGUUGAUCCCACCCACAGGGCCCAUUGGGCGCUAGCACUCUGGUAUCACGGUACCUUUGUGCGCCUGUUUUACC
Take B1: the binding result was “no binding”.
